# Laboratory results reported in the supplement of paper PMC9112550, “Optimization of the antimicrobial peptide Bac7 by deep mutational scanning” (BMC Biology, 2022).
# Tested on: Escherichia coli TOP10
# Test: shrunken log2 fold change of peptide-encoding DNA abundance (4.5 h post-induction vs induction); higher = less antimicrobial activity (less host growth inhibition)
# Settings: time post-induction: 4.5 h; library: site-saturation at positions 5, 18, 19, 20
# 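Also: peptides expressed intracellularly from a pBAD plasmid library in pooled LB shake-flask culture, induced with 0.3% L-arabinose, DNA abundance read by NGS, three biological replicates, DESeq2 with apeglm shrinkage.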
row,Sequence,shrunken log2 fold change
1,RRIRCRPPRLPRPRPRPLQQPRP,0.178
2,RRIRDRPPRLPRPRPRPFTHPRP,-0.0968
3,RRIRHRPPRLPRPRPRPRKLPRP,-0.141
4,RRIRYRPPRLPRPRPRPPICPRP,-0.801
5,RRIRMRPPRLPRPRPRPNDGPRP,-0.0703
6,RRIRQRPPRLPRPRPRPQPVPRP,0.00167
7,RRIRPRPPRLPRPRPRPHRHPRP,-0.47
8,RRIRCRPPRLPRPRPRPQNTPRP,-0.691
9,RRIRRRPPRLPRPRPRPPPTPRP,1.12
10,RRIRGRPPRLPRPRPRPWRFPRP,0.425
11,RRIRHRPPRLPRPRPRPELEPRP,-0.0141
12,RRIRYRPPRLPRPRPRPIISPRP,-0.18
13,RRIRKRPPRLPRPRPRPLKFPRP,-0.118
14,RRIRVRPPRLPRPRPRPKMKPRP,0.839
15,RRIRKRPPRLPRPRPRPYKMPRP,-0.47
16,RRIRQRPPRLPRPRPRPPHWPRP,0.641
17,RRIRERPPRLPRPRPRPYDSPRP,-0.0594
18,RRIRHRPPRLPRPRPRPSGTPRP,-0.0258
19,RRIRIRPPRLPRPRPRPVGEPRP,-0.0964
20,RRIRNRPPRLPRPRPRPPFAPRP,0.201
21,RRIRMRPPRLPRPRPRPQMTPRP,1.2
22,RRIRKRPPRLPRPRPRPHSCPRP,0.0828

row,Sequence,shrunken log2 fold change
1,RRIRIRPPRLPRPRPRPRGDPRP,0.389
2,RRIRARPPRLPRPRPRPYNIPRP,-0.159
3,RRIRRRPPRLPRPRPRPQEHPRP,1.34
4,RRIRPRPPRLPRPRPRPCPLPRP,-0.208
5,RRIRTRPPRLPRPRPRPFWSPRP,-0.178
6,RRIRHRPPRLPRPRPRPPNAPRP,0.257
7,RRIRQRPPRLPRPRPRPTSVPRP,0.0377
8,RRIRIRPPRLPRPRPRPVSQPRP,-0.0669
9,RRIRARPPRLPRPRPRPKTSPRP,0.331
10,RRIRNRPPRLPRPRPRPFYVPRP,-0.181
11,RRIRPRPPRLPRPRPRPNYDPRP,-0.388
12,RRIRHRPPRLPRPRPRPQNAPRP,-0.135
13,RRIRERPPRLPRPRPRPAFSPRP,0.122
14,RRIRKRPPRLPRPRPRPEFPPRP,0.0804
15,RRIRNRPPRLPRPRPRPKVPPRP,-0.129
16,RRIRFRPPRLPRPRPRPNMEPRP,-0.129
17,RRIRQRPPRLPRPRPRPMHNPRP,-0.28
18,RRIRERPPRLPRPRPRPCGDPRP,-0.231
19,RRIRCRPPRLPRPRPRPMNRPRP,-0.35
20,RRIRWRPPRLPRPRPRPQTKPRP,0.434
21,RRIRARPPRLPRPRPRPRCMPRP,1.62
22,RRIRQRPPRLPRPRPRPWEFPRP,-0.123

row,Sequence,shrunken log2 fold change
1,RRIRNRPPRLPRPRPRPCNSPRP,-0.0484
2,RRIRWRPPRLPRPRPRPPYHPRP,-0.106
3,RRIRYRPPRLPRPRPRPQWHPRP,-0.638
4,RRIRQRPPRLPRPRPRPPWRPRP,0.619
5,RRIRERPPRLPRPRPRPCHAPRP,-0.301
6,RRIRRRPPRLPRPRPRPNMQPRP,0.183
7,RRIRNRPPRLPRPRPRPRHIPRP,-0.0233
8,RRIRCRPPRLPRPRPRPPQHPRP,0.49
9,RRIRHRPPRLPRPRPRPDYTPRP,-0.00281
10,RRIRDRPPRLPRPRPRPGPGPRP,0.764
11,RRIRVRPPRLPRPRPRPRKKPRP,0.0671
12,RRIRNRPPRLPRPRPRPCFHPRP,-0.503
13,RRIRTRPPRLPRPRPRPLATPRP,0.0927
14,RRIRHRPPRLPRPRPRPDEPPRP,0.197
15,RRIRHRPPRLPRPRPRPGINPRP,-0.422
16,RRIRERPPRLPRPRPRPAVEPRP,0.108
17,RRIRFRPPRLPRPRPRPVDAPRP,0.183
18,RRIRMRPPRLPRPRPRPWMKPRP,-0.234
19,RRIRIRPPRLPRPRPRPCHDPRP,-0.223
20,RRIRKRPPRLPRPRPRPQEGPRP,-0.00136
21,RRIRKRPPRLPRPRPRPADYPRP,-0.0391
22,RRIRHRPPRLPRPRPRPVEFPRP,-0.178

row,Sequence,shrunken log2 fold change
1,RRIRWRPPRLPRPRPRPLAPPRP,0.664
2,RRIRHRPPRLPRPRPRPHDDPRP,-0.0997
3,RRIRRRPPRLPRPRPRPVVWPRP,0.643
4,RRIRYRPPRLPRPRPRPNRLPRP,-0.0455
5,RRIRHRPPRLPRPRPRPAAEPRP,0.334
6,RRIRYRPPRLPRPRPRPASNPRP,-0.0548
7,RRIRHRPPRLPRPRPRPTRLPRP,0.189
8,RRIRKRPPRLPRPRPRPIHYPRP,-0.15
9,RRIRIRPPRLPRPRPRPYTCPRP,-0.0187
10,RRIRCRPPRLPRPRPRPPDRPRP,0.394
11,RRIRYRPPRLPRPRPRPIKCPRP,-0.00104
12,RRIRKRPPRLPRPRPRPEDYPRP,1.15
13,RRIRLRPPRLPRPRPRPVMCPRP,0.142
14,RRIRQRPPRLPRPRPRPQHDPRP,-0.477
15,RRIRSRPPRLPRPRPRPQTLPRP,-0.119
16,RRIRTRPPRLPRPRPRPHQPPRP,-0.0196
17,RRIRTRPPRLPRPRPRPMMNPRP,0.0667
18,RRIRARPPRLPRPRPRPDHRPRP,0.0154
19,RRIRQRPPRLPRPRPRPNECPRP,0.033
20,RRIRTRPPRLPRPRPRPNQVPRP,0.00376
21,RRIRYRPPRLPRPRPRPFPDPRP,-0.164
22,RRIRPRPPRLPRPRPRPVFKPRP,-0.189

row,Sequence,shrunken log2 fold change
1,RRIRPRPPRLPRPRPRPQGKPRP,-0.198
2,RRIRKRPPRLPRPRPRPHQDPRP,0.0154
3,RRIRCRPPRLPRPRPRPMHNPRP,-0.293
4,RRIRDRPPRLPRPRPRPVTRPRP,0.348
5,RRIRTRPPRLPRPRPRPEDLPRP,0.0657
6,RRIRTRPPRLPRPRPRPQITPRP,-0.474
7,RRIRGRPPRLPRPRPRPCLLPRP,0.164
8,RRIRQRPPRLPRPRPRPKITPRP,-0.0282
9,RRIRIRPPRLPRPRPRPPTAPRP,0.335
10,RRIRSRPPRLPRPRPRPLRDPRP,0.439
11,RRIRERPPRLPRPRPRPDKSPRP,-1.19
12,RRIRVRPPRLPRPRPRPSAHPRP,-0.0182
13,RRIRSRPPRLPRPRPRPINAPRP,-0.377
14,RRIRLRPPRLPRPRPRPTLFPRP,0.0945
15,RRIRFRPPRLPRPRPRPWPGPRP,0.112
16,RRIRFRPPRLPRPRPRPDCGPRP,-0.107
17,RRIRVRPPRLPRPRPRPNELPRP,-0.00739
18,RRIRIRPPRLPRPRPRPQDYPRP,-0.162
19,RRIRVRPPRLPRPRPRPYSVPRP,-0.265
20,RRIRIRPPRLPRPRPRPLLKPRP,-0.428
21,RRIRWRPPRLPRPRPRPHGYPRP,-0.018
